Data: a protein production outcome set (Wang et al. 2014)

experiment: label from the status in PepcDB records
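Further: failed if final PepcDB status was selected cloned or expressed and not failed if soluble or beyond.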

Question: For “MHWTIIGGGIQGTAIAQKLLSSGLTTDLLTIIDPHETFCQRFNSYTNRIEMPYLRSPIVHHVHPQPFHLKQFAKQHQYTNAFYGPYQRPELTMFMNHIAHASKQYQLEDCLVQGLVQTLDKQEDKWHIKLEDGQIITTDCVVIAIGSTNIPFMPDILKDKQNVNHIFEKEHDQVVYDKTDHIVGSGITAAHLALKLLNHDNDKKI”, which protein production is on record?
Answer: failed

Question: With “MHYDVIVIGGGPSGLMAAIGAAEEGANVLLLDKGNKLGRKLAISGGGRCNVTNRLPLDEIVKHIPGNGRFLYSAFSIFNNEDIITFFENLGVKLKEEDPGRMFPVSNKAQSVVDALLTRLKDLGVKIRTNTPVETIEYENGQTKAVILQTGEVLETNHVVIAVGGKSVPQTGSTGDGYAWAEKAGHTITELFPTEVPILSNEPFIRDRSLQGLALRDINLSVLNPKGKAIISHKMDMLFTHFGLSGPAALRCSQFVVKALKKFKTNTIQMSIDALPEENSEQLFQRMLKQMKEDPKKGIKNVLKGYVPERYFLFLLEKNEIDGSEQAGQVSHEKIRALVKDFKEFTVNVNGTQSIEKAFVTGGGVSVKEINPKEMSSKFTNGLYFCGEVLDIHGYTGGYNITSALVTGRIAGTTAGENAKMQY” as the sequence, how does the protein production read?
Answer: not failed

Question: Which protein production does the source give for “MHYHGSCHCGTIRFDVEGELTGAMSCNCSICRRKGALLWFVPRDHLRLATPDEQIATYTFNRHLIKHRFCPTCGIHTHGEGVDQQGRAMAAINIRCLDDVDLDAVAVHQYDGRAA” here?
Answer: failed

Question: Which protein production does the source give for “MIARIPKDIPDLPAIPGMPVLMPSAVPAAAVVAPTRRPLTTAFRLLVALAATAGVTIDLILGSPLRVLTYFTIQSSVLVALTFTLSAWRAWAARRPLPALLTGGTLLYAVITGLVYHLLLAHEPAPFTMTGQAGPLTGWQALTNQLLHTAVPVAVVLDWLLLTGSGRLRLRQASAWLLYPLAYLALTLARGELILPGTPGRYLYPFLDVEQHGYKSVLGNALLLGLAFYALAVLLVTLDRVRPNPLRRRAKNGFRLQPPVG” here?
Answer: failed

Question: For “MICYKCGQDAGWNDKCPVCGADLSLFKRAIRISNSYYNDGLQKAQVRNLSGAIISLRQSLKFYKYNIQARNLLGLIYYEMGEMVDALSEWVISANYQPDDNLAKKYIDQIHNNRNQLETINQTIKKYNQALTYCKQDSKDLAVIQLRKVLSLNPKLVKGHQLLALLYLEEGHLDKAKKALRDAGKIDTDNTTTLRYLKEVNRRLKEKGTERKKKNDDLISYQSGNETIIMPKRFRESSMWANILYIIIGLVVGVAVTCFLVVPGIKSQAKTDAKKQLLSANDTISTNGQTISGLNDQIDKLKKELEDEKKKNDGVSDQISTYEALLNAYVYYTTNDVIKAGEALENINTSYLSDSAKQTYDTLNGSIADSYKEALYSQAYSSYSSGDYQSAIPTFQKLVGMDEAYRDGSAAYYLAQSFRKSGDLASAKPYYQYVVDNYAGTEKARTSKNYLAQEQQ”, which protein production is on record?
Answer: failed

Question: Which protein production does the source give for “MIDFNVDSARCTRCGQCVADCPSRIIVMATGEYPSIAPGKEFSCLRCEHCLAVCPEAAISILGFSPDGSTPLKGNLPETDQLETLIAGRRSVRRYCPENLSPELIDKLITVASCAPTGVNARKVRFTVLDDREKTAHFRDEVMERLVRLLEEEALPESKAYYARFVKVWQKHKIDLVFRDAPHLLIATAPKSLSTPRQDCVIALTTFELYAQACGIGTLWNGIATWAIEEMLPEMRQRLGIPDDHAFGYAMLFGKPAVRYARTVQHHPPEIYRVPLEHHHHHH” here?
Answer: not failed

Question: For “MIDIHCHILPEIDDGPSSLEESLVMAREAVKEGITKIIATPHHLHPSYNNKAAVVKEKVRKLNEAIQKENIPLEILPGQEVRISGDVMDGLVSGDILTLADQGKYLFVEFSSNHVSRYADKLFFQLLSQDIIPIIVHPERNHEFLKNPGLLYDLVNGGALTQITTSSLTGHLGKKIKKFTEQIIEADLTHFLASDAHNVTERTFRIREAFALVEKNYGSSKAYEFQENAELLVENQHVMGPPPQPIVKKKLLGIF”, which protein production is on record?
Answer: failed

Question: With “MIDIKVDPRLKSQRFRQEREADWRRLERLIGKVEKGSIADLSDEDLLAAPVLYRSALSALSVARATSLDRALIAYLETLCARAYFFVYGSRETLWGQLKGFFAGDWPAAVRGLWRETLVSAALMALGVMIAAWLVGHDPDWFYAFVPRELAGGRDPAATTEALAATLGGKDASGLTVFATFLFTHNAQVALLAFALGFALCVPTAGLVLYNGAMLGAFLALFASRGLGIELGGWLLIHGVTELFAVILAGAAGLRIGWAAAFPGERRRLDALAEAGRHAATVMGGVVVMLFLAGLLEGFGRQLITDTAARYGVAAATALMWGLYFYGPRRHG” as the sequence, how does the protein production read?
Answer: failed

Question: Which protein production does the source give for “MIDLDFRKLTIEECLKLSEEEREKLPQLSLETIKRLDPHVKAFISVRENVSVEKKGKFWGIPVAIKDNILTLGMRTTCASRILENYESVFDATVVKKMKEAGFVVVGKANLDEFAMGSSTERSAFFPTRNPWDLERVPGGSSGGSAAAVSAGMVVAALGSDTGGSVRQPASLCGVVGYKPTYGLVSRYGLVAFASSLDQIGPITKTVRDAAILMEIISGRDENDATTVNRKVDFLSEIEEGVSGMKFAVPEEIYEHDIEEGVSERFEEALKLLERLGAKVERVKIPHIKYSVATYYVIAPAEASSNLARFDGVKYGLRIKEKGLREMYMKTRNVGFGEEVRRRIMIGTFTLSAAYYEAYFNKAMKVRRKISDELNEVLSQYDAILTPTSPVTAFKIGEIKDPLTYYLMDIFTIPANLAGLPAISVPFGFSNNLPVGVQVIGRRFADGKVFRIARAIEKNSPYNENGMFPLPEVKA” here?
Answer: not failed

Question: Which protein production does the source give for “MIDPREPIVTPVPVEELRPTQITVGMREVALKRQMIREQDAKKKTGAFLGKHMVPVVLGPKNRNYVTDHHHLARALLEEGVKDVLVTVISDLSALDKDTFLFVLDNRGWMHPFDESGRRRDYSAIPKTIGELIDDPYRSMAGELRRMGGFAKDTTPFSEFIWADFLRRRIDRNAVAKNFDKAMKEALSLAKGKDADYLPGWCGPTSDLEHHHHHH” here?
Answer: not failed

Question: With “MIDVKSIILIVLDGLGDRPGEILGYRTPLQAAYHPNMNRMASLGMTGLMHPISPGIRSGSDTSHMSLLGYDPRVYYQGRGPFEALGLHMDMKPGDLAFRANFATNRDGKIIDRRAGRINAGNDQLASAISIDIGNYKFRVKSGVEHRAALVVSGPNLSDKISDSDPHSEGKPPEPIRPLDPSADSTAKIMNEYLKRIREILRDHPVNVEREKNGQIPGNELLIRSAGKVPDIPSFQEKNGITGACVVGSPWLKGLCRLLGMAVIDVPGAAGTINSNYTGKIKTAIDASKRYDFVLVNIKATDVAGHDGDYELKRRVIEDIDIAMEPLLGQSDRIVVAITGDHSTPCSVKDHSGDPVPIVFYTDGIYSDDVKLFDEVSAMKGALRITTQDVLNILMEMAGRAEKFGS” as the sequence, how does the protein production read?
Answer: not failed

Question: Which protein production does the source give for “MIEAYKDYWKRYIDFKGKSNRLEFWTPVLVHIISIFIIALIGAFSFIVGIFIVAAVLSALIGLFGLANIVPMAAVTLRRFYDAGRKRTTAIILIILSVVVNIVFDIIQVDSIAVFLNIVSIICTIILVIETLLPSKNVEDAQLKWL” here?
Answer: failed

Question: With “MIEDKFMRVLLMFDVPTKSKKEQKLASKFRNNLIKLGYFMLQFSVYMRICKGLSSAKSSIENVKKILPPYGNVRALIITEKQFDKMELLLGGIVFNEKVNNETNLTLFDIDSHGEFKYKNSNNEEIQINKKQEKYHQQNLFEFLEHHHHHH” as the sequence, how does the protein production read?
Answer: failed

Question: With “MIEDTLHAIAQQDYPAESYEVLLINDGSKDNTLEIAENLAKIYPCIKIVNVPKGMGGKGKSRTLNNGLPHAKGELIVVYDADSTPEPDCVRLLAQTLLADKKLVAVNGKVRTRNWQDSILTRFIAIEFIFFQWIFQGGRWQRFELSTLMGTNYVIWRDALETLGGFDEKSLVDDTEMSFRIFIGQKRIKWVPYAIGWQQDPPSLSVFVKQRSRWTQGNFYVTRKYLPVALRTPFPIGIEILNNIMCYILFVPALFWSHITLTLGLLDIAGISVPGPFTLLWGLSFCLYVAQMWFTLSLEKVKPELYFYSVLSYVSYSQIFLFIVFKAAFDMLKNKIQGNSLQWYKTERSKEKK” as the sequence, how does the protein production read?
Answer: failed

Question: Which protein production does the source give for “MIEEQGRVVATEPGAVWVETVRRSTCSSCSANAGCGQGLMQRLGVGAGRARVRALSDLSLRVGDAVVLGIHEDLLLRASVLFYLFPLLGFFVAALLATRAGLVEPLIIVSGLAGLLAAWLLVRRHARRHADDPASQPVVLRALISGPSDSA” here?
Answer: failed

Question: With “MIEKVYCQEVKPELDGKKVRLAGWVYTNMRVGKKIFLWIRDSTGIVQAVVAKNVVGEETFEKAKKLGRESSVIVEGIVKADERAPGGAEVHVEKLEVIQAVSEFPIPENPEQASPELLLDYRHLHIRTPKASAIMKVKETLIMAAREWLLKDGWHEVFPPILVTGAVEGGATLFKLKYFDKYAYLSQSAQLYLEAAIFGLEKVWSLTPSFRAEKSRTRRHLTEFWHLELEAAWMDLWDIMKVEEELVSYMVQRTLELRKKEIEMFRDDLTTLKNTEPPFPRISYDEAIDILQSKGVNVEWGDDLGADEERVLTEEFDRPFFVYGYPKHIKAFYMKEDPNDPRKVLASDMLAPEGYGEIIGGSQREDDYDKLLNRILEEGMDPKDYEWYLDLRRYGSVPHSGFGLGVERLVAWVLKLDHIRWAALFPRTPARLYP” as the sequence, how does the protein production read?
Answer: not failed

Question: With “MIENTIYKEFIDKISELSDGIYPIITDLDNDLSYVPDKTADFFGFEAGEHTCFFEQLSSCVNDVDLPEYKREIRYRLNGEKPDDIFYVRMGKHTKEYMMGFYSDIFTGDDGHRYHVLVLRNENTLPDIDPYTYLYGQSKFERDINGYIMENRSVAIIEVEIGHIDEFNILYGSNFNTAIQRELALKFIYMMDGSTATYYMNNCKFVFVVKEADRALAESFYQKIADTIKSMYFFKCFKFEFDIYAACLILKDYDGDTSTVISKVEYTLDRAKELHSSDLLFFNDMVRFNGSSHIDIMKIIHQSVINSCDGFFVEFQPIVKACNGEIMGAEALVRWKKEPFGTVPPGLFIDWLEDTPAMYELGNYIMRTAISAASEFAKIKPGFFINVNASSEQLEKENFVKDTLAILKEYDFPPSQLWIEITERCRDLPISMIKKTVTAFREAGIHITMDDYGTGSSSSQMMLELPVEGIKIDMFFVKDILEEKKKQALVIGMINFANAADLKICIEGIENDNLESYLRQFDVTWFQGYHYSRSICQDELMKLLIKP” as the sequence, how does the protein production read?
Answer: failed

Question: With “MIESRRFVSDVMITFIASLVNIIISFPISVVIGRYLGVEDLGAYRLVFSIYGLSLLFANAGIPAAVIKQISEIKEDPKSTVKVISSSFFTSSLLGIFFLIFYLLFAETLSNIFGTPELADLIRIISLSFPFSVTGSTMLATLNGFRDMKKHATAILIQSVLMLFFTILSITFGYGVNGAVGASVISSIGYCVYLLRYLGKYIKIINFSDAVHYSKSMITFGLQTVVANAVNLINFQADTIMVGYFLTKTDVGFYSVAVLLAKLLWLIPDSIQKITYPLISEHYNNSGTEYINRAIETIMKYTMCISIVIGSGMIFYGEGIITSIYGASFIESVNPYYILIVGTMIFSIVKCVNSLFASIGRVDLFAKIPTYSAAVNILLNLVLIPIYHINGAAIATSTSLLIYVLVMIYYMKKLVNIHINVIWYSKAIFLFAMLIIINYILSLFTPFNSSGILTVSLGCLLLWIYILEPSDRVFFLSLVTKLKSLSLN” as the sequence, how does the protein production read?
Answer: failed

Question: For “MIETTKGGSGSYPIKTIVVLVQENRSFDHTLGWFKELNREIDGVTKSDPKSNTVSSSDTNSLRVVFGDQSQYVNPDPGHSIQDIYEQVFGKPWDSGKPDPNPGHPNMSGFAQNAERNKKGMSSAVMNGFKPNALPVYKELVQNFAICDRWFASVPASTQPNRLYVHSATSHGATSNDKKLLLEGFPQKTIFESLDEAGFSFGIYYQFPPSTLFYRNLRKLKYLTHFHQYGIQFKKDCKEGKLPNYVVVEQRWFDLLSTPANDDHPSHDVSEGQKLVKEVYEALRSSPQWNEILFIITYDEHGGFYDHVPTPVDGVPNPDGILGPPPYNFEFNRLGVRVPTFFISPWIEPGTVIHGPNGPYPRSQYEHSSIPATVKTIFKLKDFLSKRDSWAGTFESVITRDSPRQDCPETLSTPIKLRGTMAKENAQLSEFQEDLVIMAAGLKGDYKNEELIHKLCKETCVADASKYVTNAFEKFLEESRKARDRGCDENDIVYCVDDDDDHVVIPPQSHSEASNAAAQPKTQTSFFNKLFSCFIRHD”, which protein production is on record?
Answer: failed
